Reference: the supplement of paper PMC9112550, “Optimization of the antimicrobial peptide Bac7 by deep mutational scanning” (BMC Biology, 2022)

Tested on: Escherichia coli TOP10
Experiment: shrunken log2 fold change of peptide-encoding DNA abundance (4.5 h post-induction vs induction); higher = less antimicrobial activity (less host growth inhibition)
Details: time post-induction: 4.5 h; library: site-saturation at positions 5, 18, 19, 20
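Also: peptides expressed intracellularly from a pBAD plasmid library in pooled LB shake-flask culture, induced with 0.3% L-arabinose, DNA abundance read by NGS, three biological replicates, DESeq2 with apeglm shrinkage.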

| Sequence | shrunken log2 fold change |
| --- | --- |
| RRIRWRPPRLPRPRPRPFWNPRP | -0.175 |
| RRIRWRPPRLPRPRPRPFWQPRP | -0.00499 |
| RRIRWRPPRLPRPRPRPGALPRP | 0.406 |
| RRIRWRPPRLPRPRPRPGAVPRP | 0.745 |
| RRIRWRPPRLPRPRPRPGCYPRP | -0.0343 |
| RRIRWRPPRLPRPRPRPGDGPRP | 0.881 |
| RRIRWRPPRLPRPRPRPGDIPRP | -0.133 |
| RRIRWRPPRLPRPRPRPGDMPRP | 0.344 |
| RRIRWRPPRLPRPRPRPGDSPRP | -0.163 |
| RRIRWRPPRLPRPRPRPGEFPRP | 0.17 |
| RRIRWRPPRLPRPRPRPGEMPRP | 0.0495 |
| RRIRWRPPRLPRPRPRPGFIPRP | 0.0297 |
| RRIRWRPPRLPRPRPRPGGLPRP | 0.403 |
| RRIRWRPPRLPRPRPRPGHAPRP | 0.234 |
| RRIRWRPPRLPRPRPRPGIWPRP | 0.217 |
| RRIRWRPPRLPRPRPRPGKQPRP | 0.151 |
| RRIRWRPPRLPRPRPRPGMMPRP | 0.113 |
| RRIRWRPPRLPRPRPRPGPHPRP | -0.0302 |
| RRIRWRPPRLPRPRPRPGQMPRP | 0.0528 |
| RRIRWRPPRLPRPRPRPGRIPRP | 0.298 |
| RRIRWRPPRLPRPRPRPGSSPRP | -0.0655 |
| RRIRWRPPRLPRPRPRPGSTPRP | 0.161 |
| RRIRWRPPRLPRPRPRPGTSPRP | 0.304 |
| RRIRWRPPRLPRPRPRPGTWPRP | 0.0354 |
| RRIRWRPPRLPRPRPRPGVWPRP | 0.519 |

| Sequence | shrunken log2 fold change |
| --- | --- |
| RRIRWRPPRLPRPRPRPGWIPRP | 0.207 |
| RRIRWRPPRLPRPRPRPGWRPRP | 0.617 |
| RRIRWRPPRLPRPRPRPHACPRP | 0.171 |
| RRIRWRPPRLPRPRPRPHAFPRP | 0.154 |
| RRIRWRPPRLPRPRPRPHAHPRP | 0.0336 |
| RRIRWRPPRLPRPRPRPHCWPRP | 0.202 |
| RRIRWRPPRLPRPRPRPHETPRP | 0.126 |
| RRIRWRPPRLPRPRPRPHFAPRP | 0.046 |
| RRIRWRPPRLPRPRPRPHFFPRP | -0.0221 |
| RRIRWRPPRLPRPRPRPHGCPRP | 0.0126 |
| RRIRWRPPRLPRPRPRPHGYPRP | -0.018 |
| RRIRWRPPRLPRPRPRPHHEPRP | -0.262 |
| RRIRWRPPRLPRPRPRPHHFPRP | -0.0138 |
| RRIRWRPPRLPRPRPRPHIAPRP | 0.0545 |
| RRIRWRPPRLPRPRPRPHKCPRP | 0.188 |
| RRIRWRPPRLPRPRPRPHKRPRP | 0.0239 |
| RRIRWRPPRLPRPRPRPHLDPRP | -0.0108 |
| RRIRWRPPRLPRPRPRPHLVPRP | 0.392 |
| RRIRWRPPRLPRPRPRPHMNPRP | -0.667 |
| RRIRWRPPRLPRPRPRPHNIPRP | -0.691 |
| RRIRWRPPRLPRPRPRPHPAPRP | 0.35 |
| RRIRWRPPRLPRPRPRPHPMPRP | 0.408 |
| RRIRWRPPRLPRPRPRPHQPPRP | 0.145 |
| RRIRWRPPRLPRPRPRPHSCPRP | -0.0379 |
| RRIRWRPPRLPRPRPRPHSIPRP | -0.143 |

| Sequence | shrunken log2 fold change |
| --- | --- |
| RRIRWRPPRLPRPRPRPHTAPRP | -0.0505 |
| RRIRWRPPRLPRPRPRPHTFPRP | -0.0424 |
| RRIRWRPPRLPRPRPRPHVFPRP | -0.154 |
| RRIRWRPPRLPRPRPRPHVVPRP | 0.0851 |
| RRIRWRPPRLPRPRPRPIALPRP | 0.0387 |
| RRIRWRPPRLPRPRPRPIAQPRP | 0.582 |
| RRIRWRPPRLPRPRPRPICTPRP | 0.537 |
| RRIRWRPPRLPRPRPRPIDRPRP | -0.156 |
| RRIRWRPPRLPRPRPRPIEHPRP | -0.133 |
| RRIRWRPPRLPRPRPRPIEKPRP | -0.221 |
| RRIRWRPPRLPRPRPRPIERPRP | 0.0857 |
| RRIRWRPPRLPRPRPRPIGCPRP | 0.268 |
| RRIRWRPPRLPRPRPRPIHKPRP | -0.0298 |
| RRIRWRPPRLPRPRPRPIKWPRP | -0.18 |
| RRIRWRPPRLPRPRPRPILEPRP | -0.548 |
| RRIRWRPPRLPRPRPRPILIPRP | -0.037 |
| RRIRWRPPRLPRPRPRPIMEPRP | 0.0164 |
| RRIRWRPPRLPRPRPRPIMHPRP | -0.174 |
| RRIRWRPPRLPRPRPRPIMWPRP | 0.181 |
| RRIRWRPPRLPRPRPRPINEPRP | 0.402 |
| RRIRWRPPRLPRPRPRPINPPRP | -0.247 |
| RRIRWRPPRLPRPRPRPINYPRP | -0.387 |
| RRIRWRPPRLPRPRPRPIPDPRP | -0.0879 |
| RRIRWRPPRLPRPRPRPIRDPRP | 0.0528 |
| RRIRWRPPRLPRPRPRPITMPRP | -0.0679 |

| Sequence | shrunken log2 fold change |
| --- | --- |
| RRIRWRPPRLPRPRPRPIVAPRP | 0.541 |
| RRIRWRPPRLPRPRPRPIWEPRP | 0.00194 |
| RRIRWRPPRLPRPRPRPIYAPRP | -0.0827 |
| RRIRWRPPRLPRPRPRPIYCPRP | -0.581 |
| RRIRWRPPRLPRPRPRPIYWPRP | -0.208 |
| RRIRWRPPRLPRPRPRPKCEPRP | 0.359 |
| RRIRWRPPRLPRPRPRPKDNPRP | -0.00672 |
| RRIRWRPPRLPRPRPRPKEMPRP | 0.476 |
| RRIRWRPPRLPRPRPRPKENPRP | 0.373 |
| RRIRWRPPRLPRPRPRPKFTPRP | -0.119 |
| RRIRWRPPRLPRPRPRPKGCPRP | -0.00617 |
| RRIRWRPPRLPRPRPRPKGTPRP | -0.0654 |
| RRIRWRPPRLPRPRPRPKGYPRP | 0.0648 |
| RRIRWRPPRLPRPRPRPKHMPRP | -0.063 |
| RRIRWRPPRLPRPRPRPKKMPRP | 0.0841 |
| RRIRWRPPRLPRPRPRPKKTPRP | 0.0382 |
| RRIRWRPPRLPRPRPRPKKWPRP | 0.254 |
| RRIRWRPPRLPRPRPRPKLCPRP | 0.0167 |
| RRIRWRPPRLPRPRPRPKNAPRP | 0.202 |
| RRIRWRPPRLPRPRPRPKPEPRP | 0.351 |
| RRIRWRPPRLPRPRPRPKPNPRP | 0.367 |
| RRIRWRPPRLPRPRPRPKPQPRP | 0.391 |
| RRIRWRPPRLPRPRPRPKQLPRP | -0.0021 |
| RRIRWRPPRLPRPRPRPKREPRP | 0.0441 |
| RRIRWRPPRLPRPRPRPKRGPRP | 0.239 |

| Sequence | shrunken log2 fold change |
| --- | --- |
| RRIRWRPPRLPRPRPRPKSQPRP | 0.263 |
| RRIRWRPPRLPRPRPRPKVLPRP | 0.155 |
| RRIRWRPPRLPRPRPRPKVSPRP | 0.198 |
| RRIRWRPPRLPRPRPRPKYCPRP | -0.245 |
| RRIRWRPPRLPRPRPRPKYLPRP | -0.1 |
| RRIRWRPPRLPRPRPRPKYMPRP | -0.501 |
| RRIRWRPPRLPRPRPRPKYPPRP | -0.582 |
| RRIRWRPPRLPRPRPRPKYWPRP | 0.0306 |
| RRIRWRPPRLPRPRPRPLAPPRP | 0.664 |
| RRIRWRPPRLPRPRPRPLATPRP | 0.766 |
| RRIRWRPPRLPRPRPRPLDLPRP | 0.00678 |
| RRIRWRPPRLPRPRPRPLELPRP | 0.106 |
| RRIRWRPPRLPRPRPRPLEMPRP | 0.373 |
| RRIRWRPPRLPRPRPRPLEWPRP | 0.0624 |
| RRIRWRPPRLPRPRPRPLFEPRP | 0.25 |
| RRIRWRPPRLPRPRPRPLGFPRP | 0.239 |
| RRIRWRPPRLPRPRPRPLIFPRP | -0.215 |
| RRIRWRPPRLPRPRPRPLKMPRP | 0.234 |
| RRIRWRPPRLPRPRPRPLLLPRP | 0.152 |
| RRIRWRPPRLPRPRPRPLNTPRP | 0.0456 |
| RRIRWRPPRLPRPRPRPLPHPRP | 0.188 |
| RRIRWRPPRLPRPRPRPLRHPRP | 0.751 |
| RRIRWRPPRLPRPRPRPLRKPRP | 0.944 |
| RRIRWRPPRLPRPRPRPLRLPRP | 0.804 |
| RRIRWRPPRLPRPRPRPLSLPRP | 0.0175 |

| Sequence | shrunken log2 fold change |
| --- | --- |
| RRIRWRPPRLPRPRPRPLTHPRP | -0.00362 |
| RRIRWRPPRLPRPRPRPLVWPRP | 0.426 |
| RRIRWRPPRLPRPRPRPLVYPRP | 0.114 |
| RRIRWRPPRLPRPRPRPLWHPRP | -0.0484 |
| RRIRWRPPRLPRPRPRPLYEPRP | -0.255 |
| RRIRWRPPRLPRPRPRPLYFPRP | -0.613 |
| RRIRWRPPRLPRPRPRPMAWPRP | -0.0156 |
| RRIRWRPPRLPRPRPRPMCGPRP | 0.205 |
| RRIRWRPPRLPRPRPRPMCLPRP | -0.0933 |
| RRIRWRPPRLPRPRPRPMDHPRP | -0.128 |
| RRIRWRPPRLPRPRPRPMEDPRP | 0.383 |
| RRIRWRPPRLPRPRPRPMFNPRP | -0.156 |
| RRIRWRPPRLPRPRPRPMIDPRP | -0.579 |
| RRIRWRPPRLPRPRPRPMILPRP | -0.14 |
| RRIRWRPPRLPRPRPRPMKIPRP | -0.0129 |
| RRIRWRPPRLPRPRPRPMLRPRP | 0.0624 |
| RRIRWRPPRLPRPRPRPMMEPRP | 0.134 |
| RRIRWRPPRLPRPRPRPMMGPRP | 0.0383 |
| RRIRWRPPRLPRPRPRPMMVPRP | 0.0168 |
| RRIRWRPPRLPRPRPRPMNTPRP | -0.28 |
| RRIRWRPPRLPRPRPRPMPPPRP | 0.411 |
| RRIRWRPPRLPRPRPRPMQDPRP | -0.13 |
| RRIRWRPPRLPRPRPRPMQRPRP | 0.667 |
| RRIRWRPPRLPRPRPRPMRQPRP | -0.0376 |
| RRIRWRPPRLPRPRPRPMSAPRP | 0.338 |
